Experimental data: the supplement of paper PMC10567573
± gives the standard deviation.

Assay: protein stability index of a GFP-peptide fusion (GPS, HEK-293T) (PSI 1-6); higher = more stable
[1] = treatment: DMSO, c terminus: a fixed tail appended
[2] = treatment: MLN4924 1 uM, 8 h, c terminus: a fixed tail appended
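Also: 24-mer peptide tiles fused after GFP, lentivirally expressed, FACS-sorted into six equal bins by GFP/DsRed ratio, decoded by Illumina sequencing, PSI is the read-weighted mean bin number.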

Sequence | protein stability index [1] | protein stability index [2] | protein stability index (treatment: DMSO, c terminus: native) | protein stability index (treatment: MLN4924 1 uM, 8 h, c terminus: native)
ITATSLLGTRESDTEVITVEKSSP [BCL2L13] | 4.91 ± 0.19 | 5.01 ± 0.16 | – | –
QHAALGGTATRQNNWPPLPSFCPV [SCAMP3] | 3.33 ± 0.28 | 3.39 ± 0.37 | – | –
TFQSSVLRVGIPENAPIGTLLLRL [PCDHGC5] | 2.23 ± 0.3 | 2.16 ± 0.12 | – | –
DVHELFLQMAVLVEKQADTLNVIE [STX11] | 2.2 ± 0.16 | 2.27 ± 0.27 | – | –
GQTGTRLTPADKAEHMKRQRHPRL [AUP1] | 4.32 ± 0.18 | 4.6 ± 0.075 | – | –
LHLPIMGVVMKVRIPTCHDKPGTT [DENND6A] | 2.24 ± 0.31 | 2.25 ± 0.19 | – | –
SVMYRKWKESKGKDREYTDIIRKQ [CDC34] | 3.52 ± 0.18 | 3.76 ± 0.25 | – | –
KKMEQNKTAATRYRQKKRAEQEAL [ATF4] | 4.48 ± 0.52 | 4.55 ± 0.33 | – | –
ATDPFVAFHINKGLVKKYMNSLLI [FADS1] | 2.46 ± 0.59 | 2.64 ± 0.43 | – | –
TRTGPSAWETKKILAVSFAPLIQP [PCMTD2] | 2.14 ± 0.29 | 2.31 ± 0.31 | – | –
VGPLAQDPQSPMAGLRWLDSWDF [POMT2] | – | – | 3.34 ± 0.38 | 3.36 ± 0.3
VNLLHIESRKSKRRNSEFEIFVDC [TPH1] | 2.26 ± 0.52 | 2.4 ± 0.35 | – | –
LPRHQDQPHHQPPNRAGAPGESLE [TRAF3IP2] | 5.51 ± 0.2 | 5.43 ± 0.095 | – | –
AALAAMNGRKIMGKEVKVNWATTP [TIA1] | 2.25 ± 0.32 | 2.3 ± 0.28 | – | –
DIWSKSNYQVFQKVTDHATTALLH [MED27] | 2.44 ± 0.27 | 2.34 ± 0.31 | – | –
GKFIRLKNTSEQDQPMGGWEMIRK [LMNB1] | 3.73 ± 0.083 | 3.7 ± 0.2 | – | –
VEKSSPATSLFVELDEEEVKAATT [BCL2L13] | 5.53 ± 0.22 | 5.46 ± 0.2 | – | –
NQEDAIHFHRTLKEACDQHGPDLY [CPOX] | 4.33 ± 0.21 | 4.47 ± 0.15 | – | –

Sequence | protein stability index [1] | protein stability index [2] | protein stability index (treatment: DMSO, c terminus: native) | protein stability index (treatment: MLN4924 1 uM, 8 h, c terminus: native)
LRLHDNPALKECIQGADTIRCVYI [CRY1] | 2.6 ± 0.38 | 2.41 ± 0.3 | – | –
PTWIIDPIDGTTNFVHRFPFVAVS [IMPA1] | 2.36 ± 0.22 | 2.25 ± 0.25 | – | –
KKRLQELALALKKCKPSLPAEAEG [TMEM120A] | 3.62 ± 0.48 | 3.34 ± 0.36 | – | –
SQEETSILRCWKCRKCIASSGCFM [RNF180] | 2.81 ± 0.4 | 2.89 ± 0.35 | – | –
WESSAGGSFTVRADHGEPIGRGTK [HSP90AB1] | 4.83 ± 0.28 | 4.79 ± 0.55 | – | –
LWEKVMPSRYAAIYNGGVEAVSTL [SLC19A2] | 2.19 ± 0.22 | 2.07 ± 0.29 | – | –
RHEVIMDRHGVYGLQRNLLVENII [TRIM63] | 2.42 ± 0.13 | 2.31 ± 0.22 | – | –
TLEQHLNTLEGKKPGNNEGSGAPS [SNAP91] | 4.81 ± 0.18 | 5.14 ± 0.08 | – | –
GDKNEEQVLNAIEAYTEHRPEITS [ZER1] | 5.33 ± 0.2 | 5.16 ± 0.22 | – | –
AGGGGFGGGSLSGGGGSRSISASS [KRT15] | 3.89 ± 0.3 | 4 ± 0.21 | – | –
LLPLTELSVCPLEGSREHAFQITG [PLEKHN1] | 2.88 ± 0.13 | 2.83 ± 0.24 | – | –
SGGHERSRDRRRSSDRSRDSSHER [BTBD10] | 5.48 ± 0.18 | 5.59 ± 0.19 | – | –
GAGAGSSLLDVAEPGGPGWLPESD [SMAD6] | 5.23 ± 0.19 | 5.01 ± 0.25 | – | –
MSLRLQSSSASYGGGFGGGSCQLG [KRT13] | 2.54 ± 0.11 | 2.49 ± 0.11 | – | –
VSLRYSGATAASETLSGHGPLAQP [ADAMTS4] | 3.08 ± 0.15 | 3.21 ± 0.066 | – | –
GYGGSRDSYSSSRSDLYSSGRDRV [RBMX] | 3.828 ± 0.029 | 3.99 ± 0.37 | – | –
VACSETAPDLVLNAEMVQQTTYLE [LOXL2] | 4.41 ± 0.53 | 4.5 ± 0.25 | – | –
AGKSGTSTPTTPGSTAITPGTPPS [MAP2] | 5.11 ± 0.33 | 5.11 ± 0.44 | – | –
